Reference: patent US20180236071A1 (ACTICOR BIOTECH, published 2018)

T1: Soluble GPVI-Fc (human, UniProt Q9HCN6 21-269)
T1 construct: also called soluble human GPVI
T1 chain: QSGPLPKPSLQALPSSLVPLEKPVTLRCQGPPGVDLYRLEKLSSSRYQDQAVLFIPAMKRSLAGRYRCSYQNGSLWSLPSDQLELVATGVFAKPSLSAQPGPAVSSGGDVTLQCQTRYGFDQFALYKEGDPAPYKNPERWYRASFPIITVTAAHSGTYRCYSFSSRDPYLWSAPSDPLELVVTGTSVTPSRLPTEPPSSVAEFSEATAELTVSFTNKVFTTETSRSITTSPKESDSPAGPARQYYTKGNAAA

T2: murine GPVI (mouse, UniProt P0C191 22-265, limits assumed)
T2 construct: also called mouse GPVI
T2 sequence (looked up): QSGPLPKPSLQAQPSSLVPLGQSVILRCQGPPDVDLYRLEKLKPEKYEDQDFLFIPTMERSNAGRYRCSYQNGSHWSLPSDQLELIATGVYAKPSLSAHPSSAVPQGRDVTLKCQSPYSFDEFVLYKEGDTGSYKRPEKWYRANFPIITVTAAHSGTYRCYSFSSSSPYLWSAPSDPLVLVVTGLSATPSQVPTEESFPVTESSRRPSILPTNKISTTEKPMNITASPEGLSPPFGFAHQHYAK

T3: human Glycoprotein VI (GPVI) on platelets (human, UniProt Q9HCN6 21-339)
T3 chain: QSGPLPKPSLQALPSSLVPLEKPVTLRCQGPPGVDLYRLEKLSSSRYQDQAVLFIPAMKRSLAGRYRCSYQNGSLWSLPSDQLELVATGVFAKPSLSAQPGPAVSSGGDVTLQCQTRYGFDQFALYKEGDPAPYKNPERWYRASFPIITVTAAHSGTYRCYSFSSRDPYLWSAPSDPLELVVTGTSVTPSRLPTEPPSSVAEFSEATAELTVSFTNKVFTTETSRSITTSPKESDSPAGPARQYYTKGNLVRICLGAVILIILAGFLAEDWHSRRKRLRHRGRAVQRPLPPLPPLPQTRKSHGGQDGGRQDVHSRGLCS


Tests used:
[1] = target: T1, Soluble GPVI-Fc; assay: SPR, BIAcore 2000, GPVI-Fc immobilised, Fab in flow, PBS pH 7.4
Experimental: Soluble GPVI-Fc (produced as described in Example 2) was immobilized in acetate buffer 10 mM pH 6 at a dose ranging from 960 to 1071 RU (corresponding about 6.4 to 7.15 fmol/mm²) onto a Carboxy-Methyl Dextran CMS sensor chip using the amine coupling method (Wizard procedure). The protein is then passed over the immobilized GPVI-Fc in PBS pH 7.4 (10 mM phosphate, 138 mM NaCl, 2.7 mM KCl, pH 7.42 at 25.4° C.) at a flow rate of 20 μL/min at 25° C. Kinetic constants (KA, KD, kₒₙ, koff) and affinity are determined using BIAevaluation version 3.0 software, by fitting data to binding model. PBS pH 7.4 is the running buffer.

[2] = target: T2, murine GPVI; assay: not described
[3] = target: T3, human Glycoprotein VI (GPVI) on …; assay: cell-based or functional assay

| Ka [1] | Kd [1] | koff [1] | kon [1] | binding result [2] | mean IC50, intensity of collagen-induced platelet aggregation [3] | mean IC50, velocity of collagen-induced platelet aggregation [3] | Binder |
| --- | --- | --- | --- | --- | --- | --- | --- |
| 1.4e+08 M⁻¹ | 7.3 nM | 0.000476 s⁻¹ | 66500 M⁻¹ s⁻¹ | – | – | – | ACT006 antibody (humanized Fab fragment) (Fab, V domains shown) VH: QVQLVQSGAEVKKPGASVKVSCKASGYTFTSYNMHWVRQAPGQGLEWMGGIYPGNGDTSYNQKFQGRVTMTRDTSTSTVYMELSSLRSEDTAVYYCARGTVVGDWYFDVWGQGTLVTVSS VL: DIQMTQSPSSLSASVGDRVTITCSASQSLENSNGNTYLNWYQQKPGKAPKLLIYRVSNRFSGVPSRFSGSGSGTDFTLTISSLQPEDFATYYCLQLTHVPWTFGQGTKVEIKR |
| 2.57e+08 M⁻¹ | 4.1 nM | 0.000232 s⁻¹ | 59700 M⁻¹ s⁻¹ | no binding | 3.2 µg/mL | 2 µg/mL | ACT017 antibody (humanized Fab fragment) (Fab, V domains shown, Coupled to Alexa488 for the flow cytometry assay; also called ACT17; humanized Fab ACT017) VH: QVQLVQSGAEVKKPGASVKVSCKASGYTFTSYNMHWVRQAPGQGLEWMGGIYPGNGDTSYNQKFQGRVTMTRDTSTSTVYMELSSLRSEDTAVYYCARGTVVGDWYFDVWGQGTLVTVSS VL: DIQMTQSPSSLSASVGDRVTITCRSSQSLENSNGNTYLNWYQQKPGKAPKLLIYRVSNRFSGVPSRFSGSGSGTDFTFTISSLQPEDIATYYCLQLTHVPWTFGQGTKVEITR |
